Laboratory results reported in patent US20070060521.

These substances were tested on purified baculovirus-expressed STAT3β.

Substance | in vitro phosphorylation of STAT3b (32P-ATP, SDS-PAGE, autoradiography)
purified JNK protein kinase (BIOMOL) | STAT3b does not undergo serine phosphorylation by any of the MAPKs
purified p38 protein kinase (AG Scientific) | STAT3b does not undergo serine phosphorylation by any of the MAPKs
purified ERKs protein kinases (BIOMOL) | STAT3b does not undergo serine phosphorylation by any of the MAPKs

The substances below were run on purified baculovirus-expressed STAT3 (full-length).

Substance | in vitro phosphorylation of STAT3 (32P-ATP, SDS-PAGE, autoradiography)
purified JNK protein kinase (BIOMOL) | p38 and JNK can effectively phosphorylate STAT3 in vitro
purified p38 protein kinase (AG Scientific) | p38 and JNK can effectively phosphorylate STAT3 in vitro
purified ERKs protein kinases (BIOMOL) | STAT3 phosphorylation by ERK, however, is minimal compared to levels achieved for JNK and p38
